{"source": "paper doi:10.1101/2025.07.11.664400", "about": "(bioRxiv, 2025)", "binders": {"B1": {"name": "3'-dT2 (dsDNA)", "DNA 1": "CCATGGCTCCTGAGCTAGCTGCAGTAGCCTAAAGGATGAAACTAGGATCTTATGCTCCAGTT", "DNA 2": "CTGGAGCATAAGATCCTAGTTTCATCCTTTAGGCTACTGCAGCTAGCTCAGGAGCCATGGTT"}, "B2": {"name": "RecD (natural protein)", "chain": "MKLQKQLLEAVEHKQLRPLDVQFALTVAGDEHPAVTLAAALLSHDAGEGHVCLPLSRLENNEASHPLLATCVSEIGELQNWEECLLASQAVSRGDEPTPMILCGDRLYLNRMWCNERTVARFFNEVNHAIEVDEALLAQTLDKLFPVSDEINWQKVAAAVALTRRISVISGGPGTGKTTTVAKLLAALIQMADGERCRIRLAAPTGKAAARLTESLGKALRQLPLTDEQKKRIPEDASTLHRLLGAQPGSQRLRHHAGNPLHLDVLVVDEASMIDLPMMSRLIDALPDHARVIFLGDRDQLASVEAGAVLGDICAYANAGFTAERARQLSRLTGTHVPAGTGTEAASLRDSLCLLQKSYRFGSDSGIGQLAAAINRGDKTAVKTVFQQDFTDIEKRLLQSGEDYIAMLEEALAGYGRYLDLLQARAEPDLIIQAFNEYQLLCALREGPFGVAGLNERIEQFMQQKRKIHRHPHSRWYEGRPVMIARNDSALGLFNGDIGIALDRGQGTRVWFAMPDGNIKSVQPSRLPEHETTWAMTVHKSQGSEFDHAALILPSQRTPVVTRELVYTAVTRARRRLSLYADERILSAAIATRTERRSGLAALFSSRE"}, "B3": {"name": "3'-dT4 (dsDNA)", "DNA 1": "CCATGGCTCCTGAGCTAGCTGCAGTAGCCTAAAGGATGAAACTAGGATCTTATGCTCCAGTTTT", "DNA 2": "CTGGAGCATAAGATCCTAGTTTCATCCTTTAGGCTACTGCAGCTAGCTCAGGAGCCATGGTTTT"}, "B4": {"name": "RecC (natural protein)", "chain": "MLRVYHSNRLDVLEALMEFIVERERLDDPFEPEMILVQSTGMAQWLQMTLSQKFGIAANIDFPLPASFIWDMFVRVLPEIPKESAFNKQSMSWKLMTLLPQLLEREDFTLLRHYLTDDSDKRKLFQLSSKAADLFDQYLVYRPDWLAQWETGHLVEGLGEAQAWQAPLWKALVEYTHQLGQPRWHRANLYQRFIETLESATTCPPGLPSRVFICGISALPPVYLQALQALGKHIEIHLLFTNPCRYYWGDIKDPAYLAKLLTRQRRHSFEDRELPLFRDSENAGQLFNSDGEQDVGNPLLASWGKLGRDYIYLLSDLESSQELDAFVDVTPDNLLHNIQSDILELENRAVAGVNIEEFSRSDNKRPLDPLDSSITFHVCHSPQREVEVLHDRLLAMLEEDPTLTPRDIIVMVADIDSYSPFIQAVFGSAPADRYLPYAISDRRARQSHPVLEAFISLLSLPDSRFVSEDVLALLDVPVLAARFDITEEGLRYLRQWVNESGIRWGIDDDNVRELELPATGQHTWRFGLTRMLLGYAMESAQGEWQSVLPYDESSGLIAELVGHLASLLMQLNIWRRGLAQERPLEEWLPVCRDMLNAFFLPDAETEAAMTLIEQQWQAIIAEGLGAQYGDAVPLSLLRDELAQRLDQERISQRFLAGPVNICTLMPMRSIPFKVVCLLGMNDGVYPRQLAPLGFDLMSQKPKRGDRSRRDDDRYLFLEALISAQQKLYISYIGRSIQDNSERFPSVLVQELIDYIGQSHYLPGDEALNCDESEARVKAHLTCLHTRMPFDPQNYQPGERQSYAREWLPAASQAGKAHSEFVQPLPFTLPETVPLETLQRFWAHPVRAFFQMRLQVNFRTEDSEIPDTEPFILEGLSRYQINQQLLNALVEQDDAERLFRRFRAAGDLPYGAFGEIFWETQCQEMQQLADRVIACRQPGQSMEIDLACNGVQITGWLPQVQPDGLLRWRPSLLSVAQGMQLWLEHLVYCASGGNGESRLFLRKDGEWRFPPLAAEQALHYLSQLIEGYREGMSAPLLVLPESGGAWLKTCYDAQNDAMLDDDSTLQKARTKFLQAYEGNMMVRGEGDDIWYQRLWRQLTPETMEAIVEQSQRFLLPLFRFNQS"}, "B5": {"name": "RecB^ΔNuc (RecB with the nuclease domain, residues 930-1180, deleted) (domain or fragment)", "chain": "MSDVAETLDPLRLPLQGERLIEASAGTGKTFTIAALYLRLLLGLGGSAAFPRPLTVEELLVVTFTEAATAELRGRIRSNIHELRIACLRETTDNPLYERLLEEIDDKAQAAQWLLLAERQMDEAAVFTIHGFCQRMLNLNAFESGMLFEQQLIEDESLLRYQACADFWRRHCYPLPREIAQVVFETWKGPQALLRDINRYLQGEAPVIKAPPPDDETLASRHAQIVARIDTVKQQWRDAVGELDALIESSGIDRRKFNRSNQAKWIDKISAWAEEETNSYQLPESLEKFSQRFLEDRTKAGGETPRHPLFEAIDQLLAEPLSIRDLVITRALAEIRETVAREKRRRGELGFDDMLSRLDSALRSESGEVLAAAIRTRFPVAMIDEFQDTDPQQYRIFRRIWHHQPETALLLIGDPKQAIYAFRGADIFTYMKARSEVHAHYTLDTNWRSAPGMVNSVNKLFSQTDDAFMFREIPFIPVKSAGKNQALRFVFKGETQPAMKMWLMEGESCGVGDYQSTMAQVCAAQIRDWLQAGQRGEALLMNGDDARPVRASDISVLVRSRQEAAQVRDALTLLEIPSVYLSNRDSVFETLEAQEMLWLLQAVMTPERENTLRSALATSMMGLNALDIETLNNDEHAWDVVVEEFDGYRQIWRKRGVMPMLRALMSARNIAENLLATAGGERRLTDILHISELLQEAGTQLESEHALVRWLSQHILEPDSNASSQQMRLESDKHLVQIVTIHKSKGLEYPLVWLPFITNFRVQEQAFYHDRHSFEAVLDLNAAPESVDLAEAERLAEDLRLLYVALTRSVWHCSLGVAPLVRRRGDKKGDTDVHQSALGRLLQKGEPQDAAGLRTCIEALCDDDIAWQTAQTGDNQPWQVNDVSTAELNAKTLQRLPGDNWRVTSYSGLQQRGHGIAQDLMPRLDVDAA"}}, "key": {"[1]": {"target": "RecBCD (Escherichia coli, UniProt P08394;P07648;P04993 1-1180;1-1122;1-608)", "assay": "fluorescence competition"}, "[2]": {"target": "RecBΔNucCD (Escherichia coli, UniProt P08394;P07648;P04993 1-929;1-1122;1-608)", "assay": "fluorescence competition"}, "[3]": {"target": "B4", "assay": "AUC"}, "[4]": {"target": "T1, RecB (E. coli, UniProt P08394 1-1180)", "T1 sequence": "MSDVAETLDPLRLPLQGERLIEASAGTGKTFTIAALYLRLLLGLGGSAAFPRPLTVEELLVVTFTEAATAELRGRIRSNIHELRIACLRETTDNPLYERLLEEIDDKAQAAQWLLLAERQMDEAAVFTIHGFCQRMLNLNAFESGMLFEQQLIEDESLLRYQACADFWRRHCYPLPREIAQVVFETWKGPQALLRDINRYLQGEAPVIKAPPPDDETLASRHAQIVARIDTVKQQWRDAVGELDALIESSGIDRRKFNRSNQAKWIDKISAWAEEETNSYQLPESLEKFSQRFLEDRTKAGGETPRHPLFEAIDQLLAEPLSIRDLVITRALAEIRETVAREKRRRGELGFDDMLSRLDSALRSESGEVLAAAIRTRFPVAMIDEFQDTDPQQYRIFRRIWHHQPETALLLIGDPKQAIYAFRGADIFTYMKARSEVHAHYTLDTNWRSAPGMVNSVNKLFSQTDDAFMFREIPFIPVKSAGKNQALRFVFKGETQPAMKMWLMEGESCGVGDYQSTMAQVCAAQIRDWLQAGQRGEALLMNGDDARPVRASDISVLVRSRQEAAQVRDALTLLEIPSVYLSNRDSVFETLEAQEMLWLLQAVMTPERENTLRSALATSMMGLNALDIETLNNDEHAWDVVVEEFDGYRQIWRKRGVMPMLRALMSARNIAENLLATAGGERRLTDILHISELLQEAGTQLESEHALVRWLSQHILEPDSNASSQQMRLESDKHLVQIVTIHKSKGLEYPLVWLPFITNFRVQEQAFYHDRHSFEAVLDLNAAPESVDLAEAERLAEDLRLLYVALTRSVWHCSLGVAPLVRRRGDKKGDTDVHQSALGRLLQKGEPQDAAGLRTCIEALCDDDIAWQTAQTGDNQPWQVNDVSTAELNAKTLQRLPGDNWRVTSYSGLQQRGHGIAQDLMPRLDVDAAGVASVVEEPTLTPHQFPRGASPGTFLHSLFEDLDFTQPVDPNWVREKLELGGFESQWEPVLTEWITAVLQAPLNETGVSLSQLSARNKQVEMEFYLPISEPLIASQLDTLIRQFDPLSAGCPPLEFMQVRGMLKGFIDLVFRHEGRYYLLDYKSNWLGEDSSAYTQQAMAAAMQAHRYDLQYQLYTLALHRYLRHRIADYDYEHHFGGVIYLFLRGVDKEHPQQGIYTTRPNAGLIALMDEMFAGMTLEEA", "assay": "AUC"}}, "data": [{"binder": "B1", "values": [{"measurement": "Ka", "setting": "[1]", "value": "2.1e+07", "unit": "M⁻¹"}, {"measurement": "Ka", "setting": "[2]", "value": "9.6e+07", "unit": "M⁻¹"}]}, {"binder": "B2", "values": [{"measurement": "binding result", "setting": "[3]", "value": "binds"}]}, {"binder": "B3", "values": [{"measurement": "Ka", "setting": "[1]", "value": "4.7e+07", "unit": "M⁻¹"}, {"measurement": "Ka", "setting": "[2]", "value": "3.3e+08", "unit": "M⁻¹"}]}, {"binder": "B4", "values": [{"measurement": "binding result", "setting": "[4]", "value": "binds"}]}, {"binder": "B5", "values": [{"measurement": "binding result", "setting": "[3]", "value": "binds"}]}]}
